Assays:
Assay in all cases: fluorescence microscopy, LentiX cells co-expressing Lck (FIG. 38)
[1] = target: T1, GFP-tagged PD1, Y223/F248 PD1 (UniProt Q15116 25-288)
T1 construct: whole, on cells; In LentiX cells co-expressing Lck; not shown: GFP tag

[2] = target: T2, GFP-tagged PD1, wildtype PD1 (Y223/Y248) (UniProt Q15116 25-288, tyrosine phosphorylation by co-expressed Lck (implied, not measured in this experiment))
T2 construct: whole, on cells; In LentiX cells co-expressing Lck; not shown: GFP tag

[3] = target: T3, GFP-tagged PD1, F223/Y248 PD1 (UniProt Q15116 25-288)
T3 construct: whole, on cells; In LentiX cells co-expressing Lck; not shown: GFP tag

[4] = target: T4, GFP-tagged PD1, F223/F248 PD1 (UniProt Q15116 25-288)
T4 construct: whole, on cells; In LentiX cells co-expressing Lck; not shown: GFP tag

Measured: binding result

B1: mCherry-tagged Binder-NT7 (designed binder)
chain: ERFDSLTDLVEHYKKNPMVETLGTVLQLKQPLGGSGGGWFHGHLSGKEAEKLLTEKGKHGSFLVRESQSHPGDFVLSVRTGDDKGESNDGKSKVTHVMIRCQELKYDVGGGGGSQLQESGGGLVQAGGSLRLSCAASGYIFSRWYMGWYRQAPGKEREFVAGIDQGSITYYADSVKGRFTISRDNAKNTVYLQMNSLKPEDTAVYYCAAVAWAGYPWYYKHAYWGQGTQVTVSS
notes: Expressed in LentiX cells co-expressing Lck; not shown: mCherry tag
binds: all assays above

— patent publication US20260201035A1 (published 2026)
